Reference: US12473372B2, “Inhibiting anti-ENPP1 antibodies” (The Regents of the University of California, priority 2020, dated 2025)

Columns and labels:
[1] = test system: ENPP1 mediated cell death of cardiac fibroblasts; experiment: Co-culture of cardiac fibroblasts and cardiomyocytes with recombinant ENPP1 and ATP, cell death; type: cell-based; conditions: for cell death and detachment of cardiac fibroblasts: images after 48 hours, versus IgG control, FIG. 18A
Protocol: FIG. 18A are exemplary micrographs showing ENPP1 mAb inhibits ENPP1 mediated cell death. Cardiac fibroblasts (green) were co-cultured with cardiomyocytes (red) followed by the addition of vehicle (panel A) or recombinant ENPP1 and ATP and IgG (panel B) or recombinant ENPP1 and ATP and 12-J-4 ENPP1mAb (panel C). Images were taken after 48 hours and show cell death and detachment of cardiac fibroblasts in the IgG control well (panel B).
FIG. 18B is an exemplary graph showing results of flow cytometry measuring cell death (PI+) from the assay performed in FIG. 18A.
Next, functional data was collected for the ENPP1 mAb using an in vitro functional assay. As shown in the previous examples, ENPP1 expression induced cardiomyocytes to release pro-inflammatory and pro-apoptotic molecules that induce cell death in a host of cell types in the injury region. To test the ENPP1 mAb, an in vitro functional assay was performed in which cardiac fibroblasts were incubated with cardiomyocytes followed by the addition of a vehicle, recombinant ENPP1 and ATP and IgG, or recombinant ENPP1 and ATP and 12-J-4 ENPP1mAb.

[2] = target: T1, ENPP1 (Homo sapiens, UniProt P22413); experiment: Luciferase based ATP assay of ENPP1 inhibition; type: biochemical; conditions: FIG. 17
T1 sequence (P22413 1-925): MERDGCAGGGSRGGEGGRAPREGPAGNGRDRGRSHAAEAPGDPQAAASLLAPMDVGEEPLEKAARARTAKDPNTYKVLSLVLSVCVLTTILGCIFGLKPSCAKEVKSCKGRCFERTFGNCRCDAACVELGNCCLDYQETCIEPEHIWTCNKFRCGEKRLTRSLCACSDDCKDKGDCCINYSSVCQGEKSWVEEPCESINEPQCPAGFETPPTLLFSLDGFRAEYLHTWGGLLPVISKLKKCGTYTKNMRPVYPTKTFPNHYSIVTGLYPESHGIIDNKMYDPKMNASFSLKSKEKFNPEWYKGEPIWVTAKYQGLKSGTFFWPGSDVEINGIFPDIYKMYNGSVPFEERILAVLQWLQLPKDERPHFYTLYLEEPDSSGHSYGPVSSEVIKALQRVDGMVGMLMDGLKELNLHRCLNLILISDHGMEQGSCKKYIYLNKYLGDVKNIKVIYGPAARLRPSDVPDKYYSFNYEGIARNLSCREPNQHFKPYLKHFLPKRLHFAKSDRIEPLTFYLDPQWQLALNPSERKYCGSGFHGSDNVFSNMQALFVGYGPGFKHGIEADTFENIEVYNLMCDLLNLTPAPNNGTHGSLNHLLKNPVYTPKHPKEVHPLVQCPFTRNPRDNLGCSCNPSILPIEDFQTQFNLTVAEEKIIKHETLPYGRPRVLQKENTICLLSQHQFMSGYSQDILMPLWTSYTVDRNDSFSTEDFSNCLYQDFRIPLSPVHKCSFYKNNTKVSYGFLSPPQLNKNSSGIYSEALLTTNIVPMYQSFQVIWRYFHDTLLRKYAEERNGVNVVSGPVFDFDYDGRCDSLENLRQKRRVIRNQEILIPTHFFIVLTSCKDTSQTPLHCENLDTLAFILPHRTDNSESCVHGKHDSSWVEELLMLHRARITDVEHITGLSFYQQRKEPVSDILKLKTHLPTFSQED
Protocol: FIG. 17 is an exemplary graph showing the effect of monoclonal Ab 12-J-4 in inhibiting ENPP1. In a luciferase based assay, ATP was incubated with luciferase in the presence or absence of ENPP1+/−the mAb or IgG control. In the absence of ENPP1, high luminescence signal is obtained.

[3] = target: T1, ENPP1; experiment: Flow cytometry binding of ENPP1 mAb to HEK cells over-expressing full length ENPP1; set-up: HEK cells over-expressing full length ENPP1 were incubated with varying concentrations of ENPP1 mAb; expressed in transfected cells; host or cells: HEK cells; conditions: compared among several clones obtained; FIG. 15
Protocol: FIG. 15 is an exemplary affinity binding curve of ENPP1 monoclonal antibody (mAb) targeting human ENPP1. HEK cells over-expressing full length ENPP1 were incubated with varying concentrations of ENPP1 mAb followed by flow cytometry to determine mean fluorescence intensity as a readout for binding. […] IgG at an identical concentration is used as a control.

[4] = target: T2, murine ENPP1 (Mus musculus, UniProt P06802); experiment: Cross reactivity of the antibody with murine ENPP1; type: binding; conditions: antibody raised against human recombinant protein
T2 sequence (P06802 1-906): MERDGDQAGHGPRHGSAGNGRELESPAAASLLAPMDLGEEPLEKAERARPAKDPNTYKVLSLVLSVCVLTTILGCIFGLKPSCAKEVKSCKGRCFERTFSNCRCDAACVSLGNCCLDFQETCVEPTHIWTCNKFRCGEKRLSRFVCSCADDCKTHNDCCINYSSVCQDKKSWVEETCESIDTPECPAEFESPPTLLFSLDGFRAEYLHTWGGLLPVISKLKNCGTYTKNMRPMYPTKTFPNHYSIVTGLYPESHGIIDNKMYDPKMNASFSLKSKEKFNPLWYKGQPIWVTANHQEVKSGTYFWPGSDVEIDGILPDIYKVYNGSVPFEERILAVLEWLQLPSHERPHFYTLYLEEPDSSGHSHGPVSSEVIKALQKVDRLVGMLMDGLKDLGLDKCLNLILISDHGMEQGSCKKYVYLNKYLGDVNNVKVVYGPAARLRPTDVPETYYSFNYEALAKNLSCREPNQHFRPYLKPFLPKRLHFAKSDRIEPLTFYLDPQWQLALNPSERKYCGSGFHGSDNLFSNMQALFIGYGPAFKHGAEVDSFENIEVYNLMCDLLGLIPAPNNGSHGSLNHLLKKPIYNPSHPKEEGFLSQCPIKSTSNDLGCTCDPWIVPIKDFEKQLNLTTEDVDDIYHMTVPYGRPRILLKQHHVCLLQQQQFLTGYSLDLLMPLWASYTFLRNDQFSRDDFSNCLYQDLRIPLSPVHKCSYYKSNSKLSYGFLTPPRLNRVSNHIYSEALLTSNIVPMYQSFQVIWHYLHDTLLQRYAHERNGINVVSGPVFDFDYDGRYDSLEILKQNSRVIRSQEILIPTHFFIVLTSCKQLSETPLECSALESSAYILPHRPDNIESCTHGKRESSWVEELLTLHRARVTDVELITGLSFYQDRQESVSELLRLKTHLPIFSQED
Text: The antibody was generated in collaboration with Lake Pharma using standard techniques of monoclonal antibody (mAb) generation, including immunization, collection and testing of hybridoma supernatants, cloning of hybridomas and further confirmation by multiple affinity assays followed by selection and production of the ENPP1mAb in a recombinant manner. […] The selected hybridoma has been sequenced and the recombinant monoclonal is produced on a CHO cell line with characterization by electropherogram and mass spectrometry. The molecular weight of the heavy chain is approximately 48 kD and the light chain 24 kD.

B1: 12-J-4: Anti-ENPP1 monoclonal antibody, IgG1kappa, made recombinantly in CHO cells; CDRs SEQ ID NO: 1-6, VH SEQ ID NO: 7, VL SEQ ID NO: 9 (antibody, V domains shown)
VH: EVMLVESGGGLVKPGGSLKLSCVASGFTFSSYTMSWVRQTPEKRLEWVATISGGGGNTYYPDSVKGRFTISRDNAKNTLYLQMSSLRSEDTALYYCARRHYGSSPYAMDYWGQGTSVTVSS
VL: DIQMTQTTSSLSASLGDRVTISCRASQDISNYLNWYQQKPDGTVKLLIYHKTRLHSGVPSRFSGSGSGTDYSLTISNLEQEDIATYFCQQGNMLPWTFGGGTKLEIK
modifications: IgG1 kappa constant regions
- PI+ cells (cell death) by flow cytometry ([1]; FIG. 18B): significant reduction
- cell death and detachment of cardiac fibroblasts [1]: significantly abrogated cell death
- cell death and detachment of cardiac fibroblasts ([1]; listed as ENPP1mAb): significantly diminished
- luminescence signal when ENPP1 is added ([2]; ATP incubated with luciferase and ENPP1, compared to IgG): significantly higher
- inhibition of ENPP1 ([2]; at nanomolar concentrations): potently inhibits
- binding and inhibitory effects on ENPP1 activity [3]: most potent
- cross reactivity with murine ENPP1 [4]: significant cross reactivity
